Source: patent publication US20100272734A1 (Novartis, published 2010)

T1: mouse TGF-βRI (ALK-5)/Fc (mouse, UniProt Q64729 30-125, limits assumed)
T1 construct: Bought counter-target
T1 sequence (looked up): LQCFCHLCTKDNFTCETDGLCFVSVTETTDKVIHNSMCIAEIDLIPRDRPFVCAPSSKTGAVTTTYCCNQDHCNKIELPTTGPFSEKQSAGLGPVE

T2: human Activin RIB (ALK-4)/Fc (human, UniProt P36896 24-126)
T2 construct: Bought counter-target
T2 sequence (looked up): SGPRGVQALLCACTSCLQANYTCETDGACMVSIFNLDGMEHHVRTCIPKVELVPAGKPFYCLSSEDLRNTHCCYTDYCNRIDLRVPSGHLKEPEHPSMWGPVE

B1: MOR07079 Fab (Fab, V domains shown)
VH: QVQLVQSGAEVKKPGASVKVSCKASGYTFTSSYINWVRQAPGQGLEWMGTINPVSGNTSYAQKFQGRVTMTRDTSISTAYMELSSLRSEDTAVYYCARGGWFDYWGQGTLVTVSS
VL: DIALTQPASVSGSPGQSITISCTGTSSDVGSYNYVNWYQQHPGKAPKLMIYGVSKRPSGVSNRFSGSKSGNTASLTISGLQAEDEADYYCQAWTSKMAGVFGGGTKLTVL
notes: Parental HuCAL GOLD Fab (Fab-FH format from pMORPH X9_FH vector); also called MOR7079; Fab-FH
B2: Activin A (ligand, UniProt P08476 311-426, looked up)
chain: GLECDGKVNICCKKQFFVSFKDIGWNDWIIAPSGYHANYCEGECPSHIAGTSGSSLSFHSTVINHYRMRGHSPFANLKSCCVPTKLRPMSMLYYDDGQNIIKKDIQNMIVEECGCS
B3: GDF-11 (ligand, UniProt O95390 299-407, looked up)
chain: NLGLDCDEHSSESRCCRYPLTVDFEAFGWDWIIAPKRYKANYCSGQCEYMFMQKYPHTHLVQQANPRGSAGPCCTPTKMSPINMLYFNDKQQIIYGKIPGMVVDRCGCS

How the values were obtained:
[1] = target: T3, human TGF-βRII/Fc (human, UniProt P37173 24-159); experiment: specificity ELISA on coated recombinant protein
T3 construct: Bought counter-target
Method: (§1) The specificity of anti-ActRIIB Fab antibodies to human ActRIIB and crossreactivity to human ActRIIA and mouse ActRIIB is evaluated in an ELISA setting. Additionally, binding to related receptors (counter-targets: human TGF-βRII/Fc (R&D systems), mouse TGF-βRI (ALK-5)/Fc (R&D systems), human Activin RIB (ALK-4)/Fc (R&D systems)) is determined. For this 5 μg/ml (if not stated otherwise) of the recombinant proteins diluted in PBS are added to a black 96-well flat-bottom MaxiSorp™ plate and incubated over night at 4° C. for coating.
(§2) The next morning, the plates are washed with TBST and blocked with MTBST. After washing the plates several times, 5 μg/ml anti-ActRIIB Fab are added and incubated for 2.5 hrs. Subsequently antigen bound Fabs are detected by incubation with alkaline phosphatase conjugated goat-anti-human IgG Fab-specific, followed by addition of AttoPhos fluorescence substrate.

[2] = target: T1, mouse TGF-βRI (ALK-5)/Fc; experiment: specificity ELISA on coated recombinant protein
Method: as §1, §2

[3] = target: T2, human Activin RIB (ALK-4)/Fc; experiment: specificity ELISA on coated recombinant protein
Method: as §1, §2

[4] = target: endogenous human ActRIIB on cells (human) (UniProt Q13705); experiment: cell-based or functional assay
Chain of endogenous human ActRIIB on cells (human) (Q13705 19-512 E459A limits assumed): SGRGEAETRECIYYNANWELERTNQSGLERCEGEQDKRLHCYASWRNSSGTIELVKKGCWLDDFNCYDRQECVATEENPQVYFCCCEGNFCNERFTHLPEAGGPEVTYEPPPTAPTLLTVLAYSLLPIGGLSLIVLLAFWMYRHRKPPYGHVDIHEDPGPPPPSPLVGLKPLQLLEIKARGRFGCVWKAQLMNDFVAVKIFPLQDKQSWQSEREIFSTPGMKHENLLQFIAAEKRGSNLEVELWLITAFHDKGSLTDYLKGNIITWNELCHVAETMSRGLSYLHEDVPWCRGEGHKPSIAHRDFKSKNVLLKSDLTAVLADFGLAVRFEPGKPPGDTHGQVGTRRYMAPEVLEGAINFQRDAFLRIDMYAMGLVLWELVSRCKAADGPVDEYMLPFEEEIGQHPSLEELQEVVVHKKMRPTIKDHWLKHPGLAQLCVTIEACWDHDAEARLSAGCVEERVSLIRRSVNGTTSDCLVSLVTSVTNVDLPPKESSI

T3 sequence (P37173 24-159 limits assumed): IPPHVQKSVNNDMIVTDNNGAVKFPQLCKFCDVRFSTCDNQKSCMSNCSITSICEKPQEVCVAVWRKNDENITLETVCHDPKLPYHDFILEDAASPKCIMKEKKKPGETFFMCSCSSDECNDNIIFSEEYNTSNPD

Binder | binding result [1] | binding result [2] | binding result [3] | Emax of ligand-induced inhibition of skeletal muscle differentiation in the presence of MOR08159 (10 µg/ml) [4] | Emax of ligand-induced inhibition of skeletal muscle differentiation in the presence of MOR08213 (10 µg/ml) [4] | Emax of ligand-induced inhibition of skeletal muscle differentiation, no Ab [4] | IC50 of ligand-induced inhibition of skeletal muscle differentiation in the presence of MOR08159 (10 µg/ml) [4] | IC50 of ligand-induced inhibition of skeletal muscle differentiation in the presence of MOR08213 (10 µg/ml) [4] | IC50 of ligand-induced inhibition of skeletal muscle differentiation, no Ab [4]
B1 | no binding (tested: 5 µg/ml Fab) | no binding (tested: 5 µg/ml Fab) | no binding (tested: 5 µg/ml Fab) |  |  |  |  |  | 
B2 |  |  |  | 61.9 % control | 57.2 % control | 37.1 % control | 0.0347 µg/mL | 0.0419 µg/mL | 0.0147 µg/mL
B3 |  |  |  | 22.1 % control | 27.1 % control | 23.2 % control | 0.0133 µg/mL | 0.012 µg/mL | 0.007 µg/mL
